From patent US11510990B2, “Conjugates of fusion proteins of GLP-1 and FGF21” (BEIJING QL BIOPHARMACEUTICAL CO., LTD., priority 2020, dated 2022)

B1: Compound 14: GLP-1/FGF21 fusion polypeptide SEQ ID NO: 14 conjugated with Moiety A at 222K (conjugate)
chain: HGEGTFTSDVSSYLEEQAAREFIAWLVRGGGGQEPGQEPGQEPGQEPGQEPHPIPDSSPLLQFGGQVRQRYLYTDDAQQTEAHLEIREDGTVGGAADQSPESLLQLRALRPGVIQILGVRTSRFLCQRPDGALYGSLHFDPEACSFRELLLEDGYNVYQSEAHGLPLHLPGQRSPHRDPAPRGPARFLPLPGLPPALPEPPGILAPQPPDVGSSDPLSLVGKSQGRSPSYES
modifications: Moiety A conjugated at K222
B2: Compound 5: GLP-1/FGF21 fusion polypeptide SEQ ID NO: 5 conjugated with Moiety A at 51K and 222K (conjugate)
chain: HGEGTFTSDVSSYLEEQAAREFIAWLVRGGGGGGGSGGGGSGGGGSGGGGKHPIPDSSPLLQFGGQVRQRYLYTDDAQQTEAHLEIREDGTVGGAADQSPESLLQLRALRPGVIQILGVRTSRFLCQRPDGALYGSLHFDPEACSFRELLLEDGYNVYQSEAHGLPLHLPGQRSPHRDPAPRGPARFLPLPGLPPALPEPPGILAPQPPDVGSSDPLSLVGKSQGRSPSYAS
modifications: Moiety A conjugated at K51 and K222
B3: Compound 22: GLP-1/FGF21 fusion polypeptide SEQ ID NO: 22 conjugated with Moiety A at 51K and 231K (conjugate)
chain: HGEGTFTSDVSSYLEEQAAREFIAWLVRGGGGGGGSGGGGSGGGGSGGGGKHPIPDSSPLLQFGGQVRQRYLYTDDAQQTEAHLEIREDGTVGGAADQSPESLLQLRALRPGVIQILGVRTSRFLCQRPDGALYGSLHFDPEACSFRELLLEDGYNVYQSEAHGLPLHLPGQRSPHRDPAPRGPARFLPLPGLPPALPEPPGILAPQPPDVGSSDPLSLVGGSQGRSPSYK
modifications: Moiety A conjugated at K51 and K231
B4: Compound 48: GLP-1/FGF21 fusion polypeptide SEQ ID NO: 88 conjugated with Moiety A at 51K and 222K (conjugate)
chain: HGEGTFTSDVSSYLEEQAAREFIAWLVRGGGGAQPGAQPGAQPGAQPGAQKHPIPDSSPLLQFGGQVRQRYLYTDDAQQTEAHLEIREDGTVGGAADQSPESLLQLRALRPGVIQILGVRTSRFLCQRPDGALYGSLHFDPEACSFRELLLEDGYNVYQSEAHGLPLHLPGQRSPHRDPAPRGPARFLPLPGLPPALPEPPGILAPQPPDVGSSDPLSLVGKSQGRSPSYES
modifications: Moiety A conjugated at K51 and K222
B5: Compound 50: GLP-1/FGF21 fusion polypeptide SEQ ID NO: 117 conjugated with Moiety A at 51K and 233K (conjugate)
chain: HGEGTFTSDVSSYLEEQAAREFIAWLVRGGGGGGGSGGGGSGGGGSGGGGKHPIPDSSPLLQFGGQVRQRYLYTDDAQQTEAHLEIREDGTVGGAADQSPESLLQLRALRPGVIQILGVRTSRFLCQRPDGALYGSLHFDPEACSFRELLLEDGYNVYQSEAHGLPLHLPGQRSPHRDPAPRGPARFLPLPGLPPALPEPPGILAPQPPDVGSSDPLSLVGGSQGRSPSYESK
modifications: Moiety A conjugated at K51 and K233
B6: Compound 13: GLP-1/FGF21 fusion polypeptide SEQ ID NO: 13 conjugated with Moiety A at 222K (conjugate)
chain: HGEGTFTSDVSSYLEEQAAREFIAWLVRGGGGAQPGAQPGAQPGAQPGAQPHPIPDSSPLLQFGGQVRQRYLYTDDAQQTEAHLEIREDGTVGGAADQSPESLLQLRALRPGVIQILGVRTSRFLCQRPDGALYGSLHFDPEACSFRELLLEDGYNVYQSEAHGLPLHLPGQRSPHRDPAPRGPARFLPLPGLPPALPEPPGILAPQPPDVGSSDPLSLVGKSQGRSPSYES
modifications: Moiety A conjugated at K222
B7: Compound 11: GLP-1/FGF21 fusion polypeptide SEQ ID NO: 11 conjugated with Moiety A at 221K (conjugate)
chain: HGEGTFTSDVSSYLEEQAAREFIAWLVRGGGGGGGSGGGGSGGGGSGGGGSHPIPDSSPLLQFGGQVRQRYLYTDDAQQTEAHLEIREDGTVGGAADQSPESLLQLRALRPGVIQILGVRTSRFLCQRPDGALYGSLHFDPEACSFRELLLEDGYNVYQSEAHGLPLHLPGQRSPHRDPAPRGPARFLPLPGLPPALPEPPGILAPQPPDVGSSDPLSLVKPSQGRSPSYES
modifications: Moiety A conjugated at K221
B8: Compound 20: GLP-1/FGF21 fusion polypeptide SEQ ID NO: 20 conjugated with Moiety A at 51K and 221K (conjugate)
chain: HGEGTFTSDVSSYLEEQAAREFIAWLVRGGGGGGGSGGGGSGGGGSGGGGKHPIPDSSPLLQFGGQVRQRYLYTDDAQQTEAHLEIREDGTVGGAADQSPESLLQLRALRPGVIQILGVRTSRFLCQRPDGALYGSLHFDPEACSFRELLLEDGYNVYQSEAHGLPLHLPGQRSPHRDPAPRGPARFLPLPGLPPALPEPPGILAPQPPDVGSSDPLSLVKPSQGRSPSYES
modifications: Moiety A conjugated at K51 and K221
B9: Compound 2: GLP-1/FGF21 fusion polypeptide SEQ ID NO: 2 conjugated with Moiety A at 20K and 231K (conjugate)
chain: HGEGTFTSDVSSYLEEQAAKEFIAWLVRGGGGGGGSGGGGSGGGGSGGGGSHPIPDSSPLLQFGGQVRQRYLYTDDAQQTEAHLEIREDGTVGGAADQSPESLLQLRALRPGVIQILGVRTSRFLCQRPDGALYGSLHFDPEACSFRELLLEDGYNVYQSEAHGLPLHLPGQRSPHRDPAPRGPARFLPLPGLPPALPEPPGILAPQPPDVGSSDPLSLVGGSQGRSPSYKS
modifications: Moiety A conjugated at K20 and K231
B10: Compound 21: GLP-1/FGF21 fusion polypeptide SEQ ID NO: 21 conjugated with Moiety A at 51K and 225K (conjugate)
chain: HGEGTFTSDVSSYLEEQAAREFIAWLVRGGGGGGGSGGGGSGGGGSGGGGKHPIPDSSPLLQFGGQVRQRYLYTDDAQQTEAHLEIREDGTVGGAADQSPESLLQLRALRPGVIQILGVRTSRFLCQRPDGALYGSLHFDPEACSFRELLLEDGYNVYQSEAHGLPLHLPGQRSPHRDPAPRGPARFLPLPGLPPALPEPPGILAPQPPDVGSSDPLSLVGGSQKRSPSYES
modifications: Moiety A conjugated at K51 and K225
B11: Compound 15: GLP-1/FGF21 fusion polypeptide SEQ ID NO: 15 conjugated with Moiety A at 231K (conjugate)
chain: HGEGTFTSDVSSYLEEQAAREFIAWLVRGGGGGGGSGGGGSGGGGSGGGGSHPIPDSSPLLQFGGQVRQRYLYTDDAQQTEAHLEIREDGTVGGAADQSPESLLQLRALRPGVIQILGVRTSRFLCQRPDGALYGSLHFDPEACSFRELLLEDGYNVYQSEAHGLPLHLPGQRSPHRDPAPRGPARFLPLPGLPPALPEPPGILAPQPPDVGSSDPLSLVGPSQGRSPSYKS
modifications: Moiety A conjugated at K231
B12: Compound 12: GLP-1/FGF21 fusion polypeptide SEQ ID NO: 12 conjugated with Moiety A at 225K (conjugate)
chain: HGEGTFTSDVSSYLEEQAAREFIAWLVRGGGGGGGSGGGGSGGGGSGGGGSHPIPDSSPLLQFGGQVRQRYLYTDDAQQTEAHLEIREDGTVGGAADQSPESLLQLRALRPGVIQILGVRTSRFLCQRPDGALYGSLHFDPEACSFRELLLEDGYNVYQSEAHGLPLHLPGQRSPHRDPAPRGPARFLPLPGLPPALPEPPGILAPQPPDVGSSDPLSLVGGSQKRSPSYES
modifications: Moiety A conjugated at K225
B13: Compound 51: GLP-1/FGF21 fusion polypeptide SEQ ID NO: 148 conjugated with Moiety B at 51C and 222C (conjugate)
chain: HGEGTFTSDVSSYLEEQAAKEFIAWLVRGGGGGGGSGGGGSGGGGSGGGGCHPIPDSSPLLQFGGQVRQRYLYTDDAQQTEAHLEIREDGTVGGAADQSPESLLQLKALKPGVIQILGVKTSRFLCQRPDGALYGSLHFDPEACSFRELLLEDGYNVYQSEAHGLPLHLPGQKSPHRDPAPRGPARFLPLPGLPPALPEPPGILAPQPPDVGSSDPLSLVGCSQGRSPSYES
modifications: Moiety B conjugated at C51 and C222

Assay: Body weight reduction in C57BL/6 mice, daily subcutaneous dosing
Assay type: in vivo
Settings: 30 nmol/kg
Method: FIGS. 1A-1F show in vivo activities of fusion protein conjugates. […] Body weight was measured daily. […] Compared to Vehicle control: ***, p<0.001. All data are expressed as mean values and standard error (SEM).
10 week old male C57BL/6 mice were injected everyday subcutaneously with 30 nmol/kg exemplary fusion protein conjugates for 10 or 14 days (n=5). Body weight was daily monitored for each individual animal. Day 1 and Day 10 (or Day 14) are first day and last day of molecule dosage. % BW loss=100*(BW on Day n-BW on Day 1)/(BW on Day 1). Data are indicated as mean values and standard error (SEM) or pooled values. Statistical analysis was performed by One-way ANOVA. Body weight reduction on Day 11 in Table 5 is calculated by −1*(% BW loss−% BW loss of vehicle group).

Row | Molecule | BW reduction efficacy compared to Compounds 10 and 13
1 | B1 | lower BW reduction efficacy

Same assay, conditions: 30 nmol/kg, 10-day dosing period (FIGS. 1A-1B)

Row | Molecule | BW reduction compared to Semaglutide
2 | B2 | much more enhanced and persistent BW reduction

Same assay, conditions: male C57BL/6 mice, 30 nmol/kg subcutaneously everyday, Day 11

Row | Molecule | Body weight reduction at 30 nmol/kg (% reduction compared to vehicle)(Day11)
3 | Semaglutide [reference compound] | 6.4%
4 | B3 | 32.9%
5 | B4 | 27.8%
6 | B5 | 9.4%
7 | B1 | 9.8%
8 | B6 | 23.6%
9 | B2 | 14.4%
10 | B7 | 10.4%
11 | B8 | 26.6%
12 | B9 | 18.2%
13 | B10 | 34.4%
14 | B11 | 11.3%
15 | B12 | 22.8%
16 | B13 | 26.2%
